Experimental data: US20200095339A1 (IMMUNEONCO BIOPHARMACEUTICALS SHANGHAI, published 2020)

T1: human CD20 (human, UniProt P11836 1-297)
T1 sequence (looked up): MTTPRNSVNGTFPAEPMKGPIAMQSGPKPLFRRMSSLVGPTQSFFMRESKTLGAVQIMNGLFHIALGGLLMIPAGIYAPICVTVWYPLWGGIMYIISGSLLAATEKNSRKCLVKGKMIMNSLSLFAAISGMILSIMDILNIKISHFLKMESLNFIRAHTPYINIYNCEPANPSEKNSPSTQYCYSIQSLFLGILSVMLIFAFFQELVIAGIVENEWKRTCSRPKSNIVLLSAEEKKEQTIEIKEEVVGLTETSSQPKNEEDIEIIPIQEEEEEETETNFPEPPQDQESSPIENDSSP


Legend:
[1] = target: T2, human CD47 (human, UniProt Q08722 19-323); test: flow cytometry on Jurkat cells (CD20-CD47+)
T2 construct: whole, on cells; Endogenous CD47 on tumor cell lines

[2] = target: T1, human CD20; test: cell-based or functional assay
[3] = target: T2, human CD47; test: FACS competition on Jurkat cells; competitor 25 nM biotin-SIRPα-Fc, detected with FITC-streptavidin
Description: (§1) The mixture was cultured at RT for 30 minutes, and then incubated with Jurkat cells at RT for 1 hour. After washes, the cells was added with fluorescence labeled streptavidin (FITC-Strep) and then incubated at RT for 1 hour.

[4] = target: T1, human CD20; test: flow cytometry on Raji-CD47KO cells (CD20+CD47-)
[5] = target: T2, human CD47; test: cell-based or functional assay
[6] = target: T2, human CD47; test: FACS competition on Jurkat cells against 25 nM labelled SIRPα-Fc. Number printed in the IC50 table although the Rituximab curve shows no inhibition (see non_binding). The table prints no unit, nM is taken from the concentration axis
Description: as §1

EC50 [1]	ADCC EC50, Raji target cells, NK92MI-CD16a effector cells [2]	ADCC EC50, Raji-CD47KO target cells, NK92MI-CD16a effector cells [2]	CDC EC50, Raji target cells, rabbit complement [2]	EC50 [3]	EC50 [4]	phagocytosis of HL-60 cells by mouse macrophage cell line Ana-1, EC50 [5]	IC50 [6]	Binder
2.72 nM	0.14 ng/mL	0.14 ng/mL	11 nM	476 nM	0.08 nM	–	–	CD20mAb-SD1 (bispecific antibody, human IgG1, kappa, Four chains, two heavy and two light, joined by disulfide bonds; Expressed in CHO cells; also called recombinant bi-functional fusion protein; CD20Ab-SD1) heavy: not shown light: QIVLSQSPAILSASPGEKVTMTCRASSSVSYIHWFQQKPGSSPKPWIYATSNLASGVPVRFSGSGSGTSYSLTISRVEAEDAATYYCQQWTSNPPTFGGGTKHELKRTVAAPSVFIFPPSDEQLKSGTASVVCLLNNFYPREAKVQWKVDNALQSGNSQESVTEQDSKDSTYSLSSTLTLSKADYEKHKVYACEVTHQGLSSPVTKSFNRGEC
0.09 nM	0.15 ng/mL	0.1 ng/mL	3.36 nM	19.7 nM	0.4 nM	300 ng/mL	–	SD1-CD20mAb (bispecific antibody, human IgG1, kappa, Four chains, two heavy and two light, joined by disulfide bonds; Expressed in CHO cells; also called recombinant bi-functional fusion protein) heavy: not shown light: QIVLSQSPAILSASPGEKVTMTCRASSSVSYIHWFQQKPGSSPKPWIYATSNLASGVPVRFSGSGSGTSYSLTISRVEAEDAATYYCQQWTSNPPTFGGGTKHELKRTVAAPSVFIFPPSDEQLKSGTASVVCLLNNFYPREAKVQWKVDNALQSGNSQESVTEQDSKDSTYSLSSTLTLSKADYEKHKVYACEVTHQGLSSPVTKSFNRGEC
–	3.82 ng/mL	1.13 ng/mL	–	–	0.06 nM	–	7.19 nM	Rituximab (antibody, V domains shown, Comparator antibody; also called Rituxan) VH: QVQLQQPGAELVKPGASVKMSCKASGYTFTSYNMHWVKQTPGRGLEWIGAIYPGNGDTSYNQKFKGKATLTADKSSSTAYMQLSSLTSEDSAVYYCARSTYYGGDWYFNVWGAGTTVTVSA VL: QIVLSQSPAILSASPGEKVTMTCRASSSVSYIHWFQQKPGSSPKPWIYATSNLASGVPVRFSGSGSGTSYSLTISRVEAEDAATYYCQQWTSNPPTFGGGTKLEIK
